B1: 10-38 (ssRNA)
RNA: GGGAGAUAAGAAUAAACGCUCAAUCUGCGGACGGUGAGGUUAAGUUGCAACGACUGCUUGGCGUUCGACAGGAGGCUCACAACAGGC
modifications: 2'-F pyrimidines
B2: 10-68 (ssRNA)
RNA: GGGAGAUAAGAAUAAACGCUCAACGCGGGAUUCUCUGAGGACGAGGCACGUGUGGGUAAUUCGUUCGACAGGAGGCUCACAACAGGC
modifications: 2'-F pyrimidines
B3: 10-4 (ssRNA)
RNA: GGGAGAUAAGAAUAAACGCUCAAUUGGGUCGGGACUCGAAAGGAUUUGAUAGGAUACAUGAAUUUCGACAGGAGGCUCACAACAGGC
modifications: 2'-F pyrimidines
B4: 10-35 (ssRNA)
RNA: GGGAGAUAAGAAUAAACGCUCAAAUCCAAAUUCUGGUCAUGAGGCGCUGCAGAUACUGCUGCGUUCGACAGGAGGCUCACAACAGGC
modifications: 2'-F pyrimidines
B5: 10-67 (ssRNA)
RNA: GGGAGAUAAGAAUAAACGCUCAAUCGGGCUUGGAUGUGGACGUGUAUUUCUAGCUGUGUACGCUUCGACAGGAGGCUCACAACAGGC
modifications: 2'-F pyrimidines
B6: 10-56 (ssRNA)
RNA: GGGAGAUAAGAAUAAACGCUCAACCUUAGGGCUCCCAAAAAUCGGGCCCGUCGGGCCGAUCACUUCGACAGGAGGCUCACAACAGGC
modifications: 2'-F pyrimidines
B7: 10-49 (ssRNA)
RNA: GGGAGAUAAGAAUAAACGCUCAACCCGACCUCCUGUAACUGGUUGAGGCACUAUUCGACAGGAGGCUCACAACAGGC
modifications: 2'-F pyrimidines
B8: 10-58 (ssRNA)
RNA: GGGAGAUAAGAAUAAACGCUCAAGGGGAGGCCCUUCAGCCGUCUCCUUGACCCUUCGACAGGAGGCUCACAACAGGC
modifications: 2'-F pyrimidines
B9: 10-11 (ssRNA)
RNA: GGGAGAUAAGAAUAAACGCUCAACGCCUGGACCGUUUGUUUAUCCCCGUAGUCUUCGACAGGAGGCUCACAACAGGC
modifications: 2'-F pyrimidines
B10: 10-16 (ssRNA)
RNA: GGGAGAUAAGAAUAAACGCUCAAUACAGCGUGUUGGUCCCGGACGGGGACUUAUUUCGACAGGAGGCUCACAACAGGC
modifications: 2'-F pyrimidines
B11: 8-102 (ssRNA)
RNA: GGGAGGACGAUGCGGCGAGUGCCUGUUUAUGUCAUCGUCCGUCGUCAGACGACUCGCCCGA
modifications: 2'-F pyrimidines
B12: 8-222 (ssRNA)
RNA: GGGAGGACGAUGCGGUGUGAACCUAUUUAUGCCAUUAUGUCUGUGCAGACGACUCGCCCGA
modifications: 2'-F pyrimidines
B13: 10-57 (ssRNA)
RNA: GGGAGAUAAGAAUAAACGCUCAACGAGCCUCCUACCGUUUAGGUACCAUCUUGUUCGACAGGAGGCUCACAACAGGC
modifications: 2'-F pyrimidines
B14: 10-27 (ssRNA)
RNA: GGGAGAUAAGAAUAAACGCUCAAUUAGCCUCCGACCGUAAGGUCCUUUUCUUGUUCGACAGGAGGCUCACAACAGGC
modifications: 2'-F pyrimidines
B15: 10-18 (ssRNA)
RNA: GGGAGAUAAGAAUAAACGCUCAACGUGAUUCCUACCAUCAGGUACCUAUCUUGUUCGACAGGAGGCUCACAACAGGC
modifications: 2'-F pyrimidines
B16: 10-48 (ssRNA)
RNA: GGGAGAUAAGAAUAAACGCUCAAGAGUUCCCUGUUGACUCGCUCUCCUGACCCUUCGACAGGAGGCUCACAACAGGC
modifications: 2'-F pyrimidines
B17: 10-31 (ssRNA)
RNA: B16 RNA with A25G, C31U, U32G, G33A, U39C, G41U, C42G, C47U, U48A
modifications: 2'-F pyrimidines
B18: 10-53 (ssRNA)
RNA: GGGAGAUAAGAAUAAACGCUCAAGGCCUCCAACCGCUAAAGGUUCCAUUCUUGUUCGACAGGAGGCUCACAACAGGC
modifications: 2'-F pyrimidines
B19: 10-1 (ssRNA)
RNA: GGGAGAUAAGAAUAAACGCUCAAAGUGAUGUGAGAGCGUGCCUCUAGUCGGUGUUCGACAGGAGGCUCACAACAGGC
modifications: 2'-F pyrimidines
B20: 10-63 (ssRNA)
RNA: B19 RNA with A24U, A35G, C42U, U45C, A46U, G47A, U48A
modifications: 2'-F pyrimidines

Substitutions are numbered along the chain they refer to.

The target in one data set is T1, HGF (hepatocyte growth factor/scatter factor) (UniProt P14210;P14210 P14210:32-494,P14210:495-728). The data set is described as follows: filter; no significant binding retained. Particulars: tags: R&D Systems. The method, then: (§1) In binding reactions, RNA concentrations were kept as low as possible—between 1 and 20 pM—to ensure equilibrium in conditions of protein excess. Oligonucleotides were incubated for 15 minutes at 37° C. with varying amounts of the protein in 43 µl of the binding buffer. Thirty-two microliters of each binding mixture placed on pre-wet 0.45 µm nitrocellulose filters under suction. Each well was immediately washed with 0.5 ml binding buffer. The amount of radioactivity retained on the filters was quantitated by imaging. The radioactivity that bound to filters in the absence of protein was used for background correction. The percentage of input oligonucleotide retained on each filter spot was plotted against the corresponding log protein concentration. The nonlinear least square method was used to obtain the dissociation constant (K_d; reference Jellinek, Lynott et al. 1993, Proc. Natl. Acad. Sci. USA. 90:11227–31).
T1 sequence (P14210 32-494, chain 1 of 2): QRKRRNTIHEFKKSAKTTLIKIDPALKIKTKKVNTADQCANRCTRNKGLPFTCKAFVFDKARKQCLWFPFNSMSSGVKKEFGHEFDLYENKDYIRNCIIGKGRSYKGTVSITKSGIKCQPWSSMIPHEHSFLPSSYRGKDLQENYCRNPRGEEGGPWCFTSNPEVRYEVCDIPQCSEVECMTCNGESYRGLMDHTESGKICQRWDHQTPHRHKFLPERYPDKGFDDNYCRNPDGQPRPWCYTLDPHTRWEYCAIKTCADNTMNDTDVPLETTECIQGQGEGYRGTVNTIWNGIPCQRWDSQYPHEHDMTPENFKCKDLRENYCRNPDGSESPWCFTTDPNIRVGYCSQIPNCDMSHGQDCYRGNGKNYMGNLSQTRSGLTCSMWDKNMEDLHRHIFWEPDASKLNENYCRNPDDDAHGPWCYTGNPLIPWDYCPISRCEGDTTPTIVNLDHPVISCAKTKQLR
T1 sequence (P14210 495-728, chain 2 of 2): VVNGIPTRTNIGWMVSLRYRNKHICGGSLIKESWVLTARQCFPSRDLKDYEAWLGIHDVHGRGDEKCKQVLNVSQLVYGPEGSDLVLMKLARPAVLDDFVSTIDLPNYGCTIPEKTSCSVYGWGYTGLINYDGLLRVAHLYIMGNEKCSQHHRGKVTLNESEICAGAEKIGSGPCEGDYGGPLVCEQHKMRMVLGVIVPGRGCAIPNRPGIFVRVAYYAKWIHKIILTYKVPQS
Turning to GGGAGGACGAUGCGGGCGGCUCGAUGUCGUCUUAUCCC (ssRNA, 2'-F pyrimidines) [8-17 38mer], the binding result was “no binding”. GGACGAUGCGGGCGGCUCGAUGUCGUCU (ssRNA, 2'-F pyrimidines) [8-17 28mer]: the binding result is given as “no binding”.

The next data set addresses T1, HGF (hepatocyte growth factor/scatter …). The data set is described as follows: filter; one or two 5' G. Particulars: tags: R&D Systems. The method, then:
as §1
On to GGUGAUAACCUAUUUAUGACGUCGUGGCUCCCCA (ssRNA, 2'-F pyrimidines) [Tr42], for which the Kd was 6.1 nM.

GGUGGGAACCUAUUUAUGUCAUCUCCGUCCCCA (ssRNA, 2'-F pyrimidines) [Tr45] gave a Kd of 1.7 nM.

GGAGUGAUCCUAUUUAUGCCGUCGCUUCUCGCCA (ssRNA, 2'-F pyrimidines) [Tr44] gave an equilibrium dissociation constant (Kd) of 6.5 nM.

In turn, GGUCAGAAUGACUUUCAUAGCUCGCUUUCCCCCA (ssRNA, 2'-F pyrimidines) [Tr71] gave a Kd of 7.7 nM. Regarding GGCAGACGACUCGCCCGAAGGACGAUGCGGCA (ssRNA, 2'-F pyrimidines) [Tr5], the Kd was found to be 28 nM. On to GGCGUGAGCCUAUUUAUGUCAUCAUGUCUGUGCA (ssRNA, 2'-F pyrimidines) [Tr6], for which binding was put at a Kd of 9 nM. GGUGAUCACCUGUUUAUGCCAUCGUUCUGGGCCA (ssRNA, 2'-F pyrimidines) [Tr48]: the Kd was determined as 1.8 nM.

GGAUUGAUUCACUGCAUCCUUGACUCUUCCCCCA (ssRNA, 2'-F pyrimidines) [Tr1]: binding was characterised by a dissociation constant (Kd) of 7.3 nM.

For the molecule GGGCGGCUCGAUGUCGUCUUAUCCCUUUGCCCCA (ssRNA, 2'-F pyrimidines) [Tr17], the Kd worked out at 3 nM. On the same count and under the same terms, the result for GGGUUUGAGUGACGAUCGUCUUGUCCCAUGUGCA (ssRNA, 2'-F pyrimidines) [Tr15] reads 8.8 nM; that for GGGUGACUCAAAAUGGUGAUCCUCGUUUCCGCCA (ssRNA, 2'-F pyrimidines) [Tr4], 1.4 nM.

As for GGCGGUGUGAACCUGUUUAUGUCCGCGUACCCCA (ssRNA, 2'-F pyrimidines) [Tr7], the Kd was 0.67 nM. The molecule GGGAGUUAUAUUUCGUCACCCGUUCCUUUGCCCCA (ssRNA, 2'-F pyrimidines) [Tr14] registered a Kd of 2.2 nM. Molecule GGUGGGAACCUAUUUAUGUCAUCGUCUGUGCCCA (ssRNA, 2'-F pyrimidines) [Tr70] had a dissociation constant (Kd) of 2.4 nM. For GGGGUGACCCUUUUUAUGACAUCGCGUCUGGCCA (ssRNA, 2'-F pyrimidines) [Tr28], the Kd was determined as 4 nM.

The molecule GGUGUGAACCUGUUUAUGCCAUCUCGAGUCCCCA (ssRNA, 2'-F pyrimidines) [Tr20] gave a Kd of 3.4 nM.

GGACAGUUUGUCUUCUAUAGCUCGUCGCCCCCA (ssRNA, 2'-F pyrimidines) [Tr59]: the dissociation constant (Kd) came out at 7.2 nM. GGUGAAUUCCUCUGGCUGAAAAUGACUUGUGCCA (ssRNA, 2'-F pyrimidines) [Tr31] registered an equilibrium dissociation constant (Kd) of 9.2 nM.

The target is the same in the next data set. The data set is described as follows: filter; 40N8 hitchhiker. Particulars: tags: R&D Systems. The method, then: as §1
Take B1: the Kd was 7.38 nM. Same read-out and setting: the result for B2 reads 1 nM. Still for that read-out and setting: the result for B3 reads 0.61 nM; that for B4, 2.33 nM. Same read-out and setting: the result for B5 reads 0.64 nM. Take B6: the affinity, expressed as Kd, was 0.28 nM.

A further data set shares this target. The data set is described as follows: filter; one or two 5' G; no inhibition of HGF in cells without PEG. The settings on record: tags: R&D Systems. The method, then: as §1
Consider GGAAUCACAGGAAUCAACUUCUAUUCCCGCCCCA (ssRNA, 2'-F pyrimidines) [Tr51], for which the Kd worked out at 0.06 nM.

For a further data set the target is unchanged. As to the kind of experiment: filter; HBSMC, 37C. Particulars: tags: R&D Systems. The essentials:
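Nitrocellulose filter binding with radiolabelled RNA at 1–20 pM under protein excess, incubated 15 min at 37 °C in binding buffer, then washed. Retained radioactivity imaged and background-corrected (no-protein filters). Kd by nonlinear least-squares fit of percent bound versus log protein concentration.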
As for B7, the equilibrium dissociation constant (Kd) turned out to be 0.24 nM. As to B8, the Kd turned out to be 0.44 nM. For the molecule B9, the equilibrium dissociation constant (Kd) worked out at 0.61 nM. Molecule B10 showed a Kd of 0.21 nM.

Molecule B11 gave an equilibrium dissociation constant (Kd) of 0.06 nM. B12: binding was put at a Kd of 0.13 nM.

B13 gave a Kd of 0.14 nM. For the molecule B14, the equilibrium dissociation constant (Kd) came to 0.83 nM. As to B15, binding was put at a Kd of 0.3 nM. As for B16, the affinity, expressed as Kd, was 0.31 nM. B17 displayed a Kd of 1.9 nM. With B18, the Kd is 0.31 nM. Turning to B19, the Kd stood at 0.094 nM. For B20, the affinity, expressed as Kd, was 0.19 nM.

These data come from patent publication US6344321, “Nucleic acid ligands which bind to hepatocyte growth factor/scatter factor (HGF/SF) or its receptor c-met” (Gilead Sciences, Inc.).
